According to paper PMC13061240:

Legend:
[1] = target: beluga whale coronavirus (BwCoV) spike (S) glycoprotein ectodomain, 2P, GCN4 trimerization motif, Strep-tag (beluga whale coronavirus (BwCoV)); assay: cryo-EM structure
[2] = target: bottlenose dolphin coronavirus (BdCoV) spike (S) glycoprotein ectodomain (23-1370), 2P, GCN4 trimeri (bottlenose dolphin coronavirus (BdCoV)); assay: cryo-EM structure

| Substance | stoichiometry N [1] | stoichiometry N [2] |
| --- | --- | --- |
| beluga whale coronavirus (BwCoV) spike (S) glycoprotein ectodomain, 2P, GCN4 trimerization motif, Strep-tag (domain or fragment) | 3 | – |
| bottlenose dolphin coronavirus (BdCoV) spike (S) glycoprotein ectodomain (23-1370), 2P, GCN4 trimeri (domain or fragment) | – | 3 |
